Experimental data: publication PMC9022998

Key:
[1] = immunoblot of intracellular AAT in 293T lysates; settings: glycan lost; control: wild-type AAT
[2] = cycloheximide chase, anti-FLAG immunoblot, secretion rate; settings: glycan lost; control: wild-type AAT in WT 293T cells
[3] = immunoblot of media and lysates, LMAN1 KO vs WT 293T; settings: glycan lost; control: wild-type AAT

Row | Substance | localisation_or_trafficking [1] | expression_or_secretion [2] | other: LMAN1-dependence of secretion [3]
1 | α1-antitrypsin (AAT): N107Q | increases | decreases | abolishes
2 | α1-antitrypsin (AAT): N271Q | – | no change | no change
3 | α1-antitrypsin (AAT): N70Q | – | no change | no change
